The term IC50 denotes the concentration that gives 50% inhibition. High values mean weaker potency in that assay, low ones greater potency in that assay.

Experiment [1] concerns the target recombinant RON protein (extracellular domain, R&D Systems) (human) (UniProt Q04912). The experiment is described as follows: full-length MET sandwich immunoassay; RON extracellular domain at 4 to 400 pM, 10-fold over rMET.
The target of experiment [2] is pY1235-MET (human MET phosphorylated at tyrosine 1235) (human) (UniProt P08581). The experiment is described as follows: interaction analysis with a BIAlite-Biosensor (Pharmacia), range of protein concentrations.
Experiment [3] has as its target T1, recombinant RON (cytoplasmic domain, Millipore) (UniProt Q04912 983-1400, limits assumed).
T1 construct: domain: cytoplasmic domain; also called recombinant cytoplasmic RON; cytoplasmic domain of RON
T1 sequence (looked up): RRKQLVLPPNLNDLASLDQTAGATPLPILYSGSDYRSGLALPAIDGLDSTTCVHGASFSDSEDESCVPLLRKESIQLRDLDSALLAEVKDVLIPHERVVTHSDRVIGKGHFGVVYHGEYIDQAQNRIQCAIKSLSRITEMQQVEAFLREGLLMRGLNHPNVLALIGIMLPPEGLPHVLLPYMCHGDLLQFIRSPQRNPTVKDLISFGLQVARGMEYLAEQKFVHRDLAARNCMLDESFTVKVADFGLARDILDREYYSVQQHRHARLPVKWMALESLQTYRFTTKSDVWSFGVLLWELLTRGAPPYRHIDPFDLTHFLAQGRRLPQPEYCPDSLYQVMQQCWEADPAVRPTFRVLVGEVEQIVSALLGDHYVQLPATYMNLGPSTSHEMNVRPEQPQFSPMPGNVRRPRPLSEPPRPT
The experiment is described as follows: Western blot of recombinant RON and preincubation of the antibody with RON. (Immunoblotting shows a protein as a band on a membrane.)

recombinant RON protein (extracellular domain, R&D Systems) (human), sequence (Q04912 25-957): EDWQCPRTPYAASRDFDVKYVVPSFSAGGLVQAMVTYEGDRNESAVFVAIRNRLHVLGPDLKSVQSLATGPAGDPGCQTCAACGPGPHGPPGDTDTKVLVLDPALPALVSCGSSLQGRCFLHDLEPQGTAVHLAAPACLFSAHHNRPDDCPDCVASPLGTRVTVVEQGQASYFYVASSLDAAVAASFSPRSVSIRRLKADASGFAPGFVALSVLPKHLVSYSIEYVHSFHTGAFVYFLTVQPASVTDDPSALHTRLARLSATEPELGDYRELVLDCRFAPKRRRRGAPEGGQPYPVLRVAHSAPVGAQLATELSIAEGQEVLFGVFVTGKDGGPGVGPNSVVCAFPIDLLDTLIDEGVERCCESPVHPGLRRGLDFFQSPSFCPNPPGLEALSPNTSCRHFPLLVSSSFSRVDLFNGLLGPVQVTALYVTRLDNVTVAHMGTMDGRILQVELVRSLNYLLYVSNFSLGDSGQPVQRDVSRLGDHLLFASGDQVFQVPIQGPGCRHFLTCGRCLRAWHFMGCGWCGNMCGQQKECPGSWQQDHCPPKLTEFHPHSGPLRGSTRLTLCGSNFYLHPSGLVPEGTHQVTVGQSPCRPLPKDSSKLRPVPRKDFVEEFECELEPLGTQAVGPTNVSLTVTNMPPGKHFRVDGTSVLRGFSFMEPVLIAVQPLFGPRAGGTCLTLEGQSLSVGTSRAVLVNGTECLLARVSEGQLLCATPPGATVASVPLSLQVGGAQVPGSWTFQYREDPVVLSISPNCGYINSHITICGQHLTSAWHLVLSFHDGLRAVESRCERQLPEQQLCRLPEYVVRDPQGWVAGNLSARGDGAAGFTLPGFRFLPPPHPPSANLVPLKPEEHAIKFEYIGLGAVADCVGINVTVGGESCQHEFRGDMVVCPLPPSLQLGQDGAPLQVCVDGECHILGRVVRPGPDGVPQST
pY1235-MET (human MET phosphorylated at tyrosine 1235) (human), sequence (P08581 25-1390 limits assumed): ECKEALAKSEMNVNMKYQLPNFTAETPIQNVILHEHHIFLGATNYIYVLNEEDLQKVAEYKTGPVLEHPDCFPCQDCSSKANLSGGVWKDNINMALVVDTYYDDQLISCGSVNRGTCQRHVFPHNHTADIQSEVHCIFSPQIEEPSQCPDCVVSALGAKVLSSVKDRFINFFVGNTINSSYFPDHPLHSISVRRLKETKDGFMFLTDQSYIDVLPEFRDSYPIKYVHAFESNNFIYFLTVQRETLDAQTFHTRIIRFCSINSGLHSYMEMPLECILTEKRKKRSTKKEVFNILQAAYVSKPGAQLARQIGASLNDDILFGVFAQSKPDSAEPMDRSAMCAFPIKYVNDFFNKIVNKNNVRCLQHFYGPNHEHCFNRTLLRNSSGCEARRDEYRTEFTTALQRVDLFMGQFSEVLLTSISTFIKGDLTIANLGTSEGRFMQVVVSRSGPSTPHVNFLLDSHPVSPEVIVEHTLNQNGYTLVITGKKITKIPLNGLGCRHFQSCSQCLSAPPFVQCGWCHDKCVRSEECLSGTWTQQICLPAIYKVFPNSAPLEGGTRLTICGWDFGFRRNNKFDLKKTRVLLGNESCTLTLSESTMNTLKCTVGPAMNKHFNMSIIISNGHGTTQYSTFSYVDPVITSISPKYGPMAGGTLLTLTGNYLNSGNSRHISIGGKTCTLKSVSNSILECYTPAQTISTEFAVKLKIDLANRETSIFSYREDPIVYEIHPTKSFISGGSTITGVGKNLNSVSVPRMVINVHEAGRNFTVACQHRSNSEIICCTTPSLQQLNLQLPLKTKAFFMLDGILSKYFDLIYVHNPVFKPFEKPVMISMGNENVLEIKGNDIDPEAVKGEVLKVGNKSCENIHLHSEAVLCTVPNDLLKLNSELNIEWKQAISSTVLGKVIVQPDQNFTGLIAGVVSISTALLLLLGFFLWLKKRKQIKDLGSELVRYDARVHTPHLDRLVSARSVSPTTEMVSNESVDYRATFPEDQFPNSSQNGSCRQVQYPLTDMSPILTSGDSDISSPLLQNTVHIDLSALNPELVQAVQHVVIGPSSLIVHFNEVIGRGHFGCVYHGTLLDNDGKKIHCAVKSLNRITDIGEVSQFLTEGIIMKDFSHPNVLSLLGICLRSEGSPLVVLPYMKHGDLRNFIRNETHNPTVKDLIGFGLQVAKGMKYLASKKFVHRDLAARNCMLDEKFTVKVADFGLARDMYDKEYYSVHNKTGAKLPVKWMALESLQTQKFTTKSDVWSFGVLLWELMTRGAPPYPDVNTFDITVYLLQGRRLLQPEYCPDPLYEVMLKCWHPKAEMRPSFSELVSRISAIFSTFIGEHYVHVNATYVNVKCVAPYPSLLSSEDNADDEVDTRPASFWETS

For “antigen affinity purified goat polyclonal anti-human MET extracellular domain antibody (catalog number AF276, R&D Systems)”, in experiment [1], the cross-reactivity was under 5%.

B1: rabbit monoclonal anti-pY1235-MET antibody, clone 23111 (antibody, V domains shown)
VH: QSVEESGGRLVTPGTPLTLTCTVSGFSLSNYAMGWFRQAPGKGLEWIGIISRSGALWYANWANGRFTISKTSTTVDLKITSPTPEDTATYFCARTNYYDGYGGVDAVLTRFDFWGQGTLVTVSS
VL: DVVMTQTPSSVEAAVGGTVTIKCQASQSIGGGLSWYQQKAGQPPKLLIYGASTLESGVPSRFKGSGSGTEFTLTISDLECADAATYYCQSNYGSDIRDYGHTFGGGTEVVVKG
notes: Rabbit IgG from a hybridoma (Epitomics), later made as a recombinant protein in HEK293 cells; Biotin-conjugated when used as reporter in the sandwich immunoassay; also called antibody #23111; mAb #23111
As to B1, the IC50 in experiment [2] was found to be 1.2 nM. For the same molecule, the binding result in experiment [3] is recorded as “no binding”.

The values above are taken from patent US20200292537A1 (THEUNITEDSTATES OF AMERICA ASREPRESENTEDBYTHE SECRETARYOF …, published 2020).
